Experiments:
[1] = molecular target: BiShAb0201 (ShAb02 VNAR - (GGGGS)5 - ShAb01 VNAR - human IgG1 Fc) (nurse shark (Ginglymostoma cirratum)); experiment: BLI
[2] = molecular target: ShAb01H02K (knob-in-hole heterodimer of ShAb01-Fc and ShAb02-Fc) (nurse shark (Ginglymostoma cirratum)); experiment: BLI

SARS-CoV-2 WA-1 spike receptor binding domain (RBD) (from UniProt P0DTC2 331-527) (domain or fragment)
Kd [1]: 1.07 nM
koff [1]: 2.82e-05 s⁻¹
kon [1]: 26300 M⁻¹ s⁻¹
Kd [2]: 0.57 nM
koff [2]: 6.98e-05 s⁻¹
kon [2]: 122000 M⁻¹ s⁻¹

Reference: publication PMC9896449
